Measurements from patent US20040116355A1 (CYTOVIA, published 2004).
* marks the point of attachment. Ethoxycarbonyl = CCOC(=O)*; CH2F = FC*

T1: rCaspase 3 (purchased from PharMingen) (UniProt P42574 29-277, limits assumed)
T1 sequence (looked up): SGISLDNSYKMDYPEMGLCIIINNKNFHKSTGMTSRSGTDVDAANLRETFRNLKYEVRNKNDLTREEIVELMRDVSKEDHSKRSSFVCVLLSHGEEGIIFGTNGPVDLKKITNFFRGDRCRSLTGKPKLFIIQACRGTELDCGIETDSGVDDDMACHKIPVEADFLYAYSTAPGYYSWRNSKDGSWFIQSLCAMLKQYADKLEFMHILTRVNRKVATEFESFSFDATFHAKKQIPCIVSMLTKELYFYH


Molecular target: T1, rCaspase 3 (purchased from PharMingen)
Assay: cell-based or functional assay

Caspase-3 IC50 (fluorometric enzyme assay, cleavage of 10 uM Ac-DEVD-AMC by 2 ng rCaspase 3) [nM] | Binder
58 | Ethoxycarbonyl-Val-Asp-CH2F (SMILES CCOC(=O)N[C@H](C(=O)N[C@@H](CC(=O)O)C(=O)CF)C(C)C) [Ethoxycarbonyl-Val-Asp-fmk]
72 | cyclohexylmethoxycarbonyl-Val-Asp-CH2F [Cyclohexylmethoxycarbonyl-Val-Asp-fmk]
